Target: recombinant marmoset GM-CSF (Callithrix jacchus) (Callithrix jacchus)
Assay: cell-based or functional assay

Chain of recombinant marmoset GM-CSF (Callithrix jacchus) (Callithrix jacchus) (chain, as listed by the source limits assumed, form in doubt): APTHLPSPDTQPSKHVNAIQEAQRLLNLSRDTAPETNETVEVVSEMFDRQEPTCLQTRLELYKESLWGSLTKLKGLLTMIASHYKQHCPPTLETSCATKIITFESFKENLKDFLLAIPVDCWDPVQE

IC50, inhibition of marmoset GM-CSF induced TF-1 proliferation (1.9 nM) | Binder
0.7 nM | MSB0010603 4K21 (4K21 hVH S56V-T62S hVL N28I-H34S-N53R-H93Y) (antibody, V domains shown) VH: EVQLVESGGGLVQPGGSLRLSCAASGFAFSAYDMSWVRQAPGKRLELVAYISSGGSVFYYPDSVKGRFTISRDNAKNSLYLQMNSLRAEDTAVYYCTRHLGFDYWGQGTLVTVSS VL: DIVMTQSPLSLPVTPGEPASISCRSSQSLVNSIGNTYLSWYLQKPGQSPQLLIYKVSRRFSGVPDRFSGSGSGTDFTLKISRVEAEDVGVYYCSQSTYVPPTFGQGTKVEIK
2 nM | MSB0010600 4K21 (4K21 hVH S55R-T62S hVL S27eY-N28I-H34S-N53R-H93Y) (antibody, V domains shown) VH: EVQLVESGGGLVQPGGSLRLSCAASGFAFSAYDMSWVRQAPGKRLELVAYISSGGRSFYYPDSVKGRFTISRDNAKNSLYLQMNSLRAEDTAVYYCTRHLGFDYWGQGTLVTVSS VL: DIVMTQSPLSLPVTPGEPASISCRSSQSLVNYIGNTYLSWYLQKPGQSPQLLIYKVSRRFSGVPDRFSGSGSGTDFTLKISRVEAEDVGVYYCSQSTYVPPTFGQGTKVEIK
0.9 nM | MSB0010599 4K21 (4K21 hVH S55R-T62S hVL N28I-H34S-N53R-H93Y) (antibody, V domains shown) VH: EVQLVESGGGLVQPGGSLRLSCAASGFAFSAYDMSWVRQAPGKRLELVAYISSGGRSFYYPDSVKGRFTISRDNAKNSLYLQMNSLRAEDTAVYYCTRHLGFDYWGQGTLVTVSS VL: DIVMTQSPLSLPVTPGEPASISCRSSQSLVNSIGNTYLSWYLQKPGQSPQLLIYKVSRRFSGVPDRFSGSGSGTDFTLKISRVEAEDVGVYYCSQSTYVPPTFGQGTKVEIK
1.3 nM | MSB0010602 4K21 (4K21 hVH S55K-T62S hVL S27eY-N28I-H34S-N53R-H93Y) (antibody, V domains shown) VH: EVQLVESGGGLVQPGGSLRLSCAASGFAFSAYDMSWVRQAPGKRLELVAYISSGGKSFYYPDSVKGRFTISRDNAKNSLYLQMNSLRAEDTAVYYCTRHLGFDYWGQGTLVTVSS VL: DIVMTQSPLSLPVTPGEPASISCRSSQSLVNYIGNTYLSWYLQKPGQSPQLLIYKVSRRFSGVPDRFSGSGSGTDFTLKISRVEAEDVGVYYCSQSTYVPPTFGQGTKVEIK
0.7 nM | MSB0010601 4K21 (4K21 hVH S55K-T62S hVL N28I-H34S-N53R-H93Y) (antibody, V domains shown) VH: EVQLVESGGGLVQPGGSLRLSCAASGFAFSAYDMSWVRQAPGKRLELVAYISSGGKSFYYPDSVKGRFTISRDNAKNSLYLQMNSLRAEDTAVYYCTRHLGFDYWGQGTLVTVSS VL: DIVMTQSPLSLPVTPGEPASISCRSSQSLVNSIGNTYLSWYLQKPGQSPQLLIYKVSRRFSGVPDRFSGSGSGTDFTLKISRVEAEDVGVYYCSQSTYVPPTFGQGTKVEIK
1.5 nM | MSB0010595 4K21 (4K21 hVH S56V-T62S hVL S27eY-N28I-H34S-N53R-H93Y) (antibody, V domains shown) VH: EVQLVESGGGLVQPGGSLRLSCAASGFAFSAYDMSWVRQAPGKRLELVAYISSGGSVFYYPDSVKGRFTISRDNAKNSLYLQMNSLRAEDTAVYYCTRHLGFDYWGQGTLVTVSS VL: DIVMTQSPLSLPVTPGEPASISCRSSQSLVNYIGNTYLSWYLQKPGQSPQLLIYKVSRRFSGVPDRFSGSGSGTDFTLKISRVEAEDVGVYYCSQSTYVPPTFGQGTKVEIK

Reference: patent US20140065163A1
